According to publication PMC5898196 (Science (New York, N.Y.), 2017):

Molecular target: the molecule itself
Experiment: cryo-EM structure

B1: Recombinant full-length human TRPM4 (hTRPM4b) (natural protein)
chain: not shown
modifications: glycan at Asn992
How did the “stoichiometry N” value turn out when B1 was run?
The value was 4.
